One molecule from patent publication US20220313831A1 (BAYLOR COLLEGE OF MEDICINE, published 2022) can be followed below.

The target of this assay is T1, CD6 (basal, native) on non-transduced T cells (human, UniProt P30203 18-668).
T1 construct: whole, on cells; also called basal CD6 expression on normal T cells
T1 sequence (looked up): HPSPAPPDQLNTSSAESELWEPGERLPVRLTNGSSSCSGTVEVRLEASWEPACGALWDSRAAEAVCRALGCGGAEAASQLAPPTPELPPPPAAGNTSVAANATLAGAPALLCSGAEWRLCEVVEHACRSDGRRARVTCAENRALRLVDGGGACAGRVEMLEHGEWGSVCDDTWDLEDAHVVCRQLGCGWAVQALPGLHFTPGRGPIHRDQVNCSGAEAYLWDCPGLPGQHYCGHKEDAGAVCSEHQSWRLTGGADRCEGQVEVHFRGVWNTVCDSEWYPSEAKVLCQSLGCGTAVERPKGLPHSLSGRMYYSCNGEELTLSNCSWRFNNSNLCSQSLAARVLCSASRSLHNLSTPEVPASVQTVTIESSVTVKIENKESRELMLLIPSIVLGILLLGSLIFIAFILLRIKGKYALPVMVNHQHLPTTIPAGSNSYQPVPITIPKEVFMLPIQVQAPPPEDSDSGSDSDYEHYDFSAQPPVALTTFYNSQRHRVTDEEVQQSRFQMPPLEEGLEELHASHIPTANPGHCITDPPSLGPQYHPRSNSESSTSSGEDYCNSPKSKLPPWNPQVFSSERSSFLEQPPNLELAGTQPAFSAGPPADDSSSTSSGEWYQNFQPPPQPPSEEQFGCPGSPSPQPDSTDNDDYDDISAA
Description: flow cytometry; non-transduced T cells stained with ALCAM-Fc and anti-human IgG1 Fc FITC. On the procedure: A) FACS analysis was used to confirm ALCAM specific binding to MBE CD6 D3 constructs on the surface of primary T cells. Cells were incubated with IgG1 Fc linked recombinant human ALCAM followed by an anti-human IgG1 Fc FITC conjugated Ab (filled black histogram). Staining of cells with anti-human IgG1 Fc FITC alone (open grey histogram), staining of non-transduced T cells (NT) (dotted open histogram) served as control for basal CD6 expression on normal T cells which bind natively to ALCAM.Fc. and percentage transduction is determined after staining of monomer, monomer+signaling domain, trimer, trimer+signaling domain, pentamer and pentamer+signaling domain (grey-filled histogram) (FIG. 6).
(Flow cytometry measures light scatter and fluorescence of single cells or particles in a stream.)

B1: IgG1 Fc linked recombinant human ALCAM (Fc fusion, UniProt Q13740 28-527, looked up)
chain: WYTVNSAYGDTIIIPCRLDVPQNLMFGKWKYEKPDGSPVFIAFRSSTKKSVQYDDVPEYKDRLNLSENYTLSISNARISDEKRFVCMLVTEDNVFEAPTIVKVFKQPSKPEIVSKALFLETEQLKKLGDCISEDSYPDGNITWYRNGKVLHPLEGAVVIIFKKEMDPVTQLYTMTSTLEYKTTKADIQMPFTCSVTYYGPSGQKTIHSEQAVFDIYYPTEQVTIQVLPPKNAIKEGDNITLKCLGNGNPPPEEFLFYLPGQPEGIRSSNTYTLTDVRRNATGDYKCSLIDKKSMIASTAITVHYLDLSLNPSGEVTRQIGDALPVSCTISASRNATVVWMKDNIRLRSSPSFSSLHYQDAGNYVCETALQEVEGLKKRESLTLIVEGKPQIKMTKKTDPSGLSKTIICHVEGFPKPAIQWTITGSGSVINQTEESPYINGRYYSKIIISPEENVTLTCTAENQLERTVNSLNVSAISIPEHDEADEISDENREKVNDQAK
notes: also called ALCAM-fc; ALCAM-Fc; not shown: IgG1 Fc (detected with anti-human IgG1 Fc antibody)
For B1, the binding result is “binds”.
